From publication PMC4297639 (Nature protocols, 2014)

Biological target: BACE2 (aspartic protease, recombinant, wild-type) (Homo sapiens (assumed; ), UniProt Q9Y5Z0)
Experiment: crystal structure

Chain of BACE2 (aspartic protease, recombinant, wild-type) (Q9Y5Z0 21-518): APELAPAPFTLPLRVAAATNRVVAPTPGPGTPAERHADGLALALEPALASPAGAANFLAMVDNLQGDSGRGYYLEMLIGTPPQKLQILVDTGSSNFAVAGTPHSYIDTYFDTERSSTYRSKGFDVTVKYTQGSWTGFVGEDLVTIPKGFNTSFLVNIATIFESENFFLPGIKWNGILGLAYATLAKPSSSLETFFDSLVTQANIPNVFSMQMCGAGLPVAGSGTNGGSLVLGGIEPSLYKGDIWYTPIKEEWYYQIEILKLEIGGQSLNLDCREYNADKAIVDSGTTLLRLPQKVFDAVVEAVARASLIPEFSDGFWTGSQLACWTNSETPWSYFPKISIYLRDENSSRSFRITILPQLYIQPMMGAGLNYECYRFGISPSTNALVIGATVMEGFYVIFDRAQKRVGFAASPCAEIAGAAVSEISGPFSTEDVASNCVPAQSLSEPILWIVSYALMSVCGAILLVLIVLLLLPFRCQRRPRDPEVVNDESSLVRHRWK

B1: Nanobody XA4815 (VHH)
VHH: QVQLQESGGGLVQAGGSLRLSCAASGFTFSRAAMRWVRRAPERGLEWVANINAGDGSASYADFVKGRFTASRDKAGNRLYLQMDNLRPNDTAVYYCIYNGHRGQGTQVTVSS
  binding result: binds
